Test results: patent US12503511 (COMPASS THERAPEUTICS, dated 2025)

T1: murine PD-1 expressed on cells (murine, UniProt Q02242 25-288)
T1 construct: whole, on cells; also called muPD-1; mouse PD-1
T1 sequence (looked up): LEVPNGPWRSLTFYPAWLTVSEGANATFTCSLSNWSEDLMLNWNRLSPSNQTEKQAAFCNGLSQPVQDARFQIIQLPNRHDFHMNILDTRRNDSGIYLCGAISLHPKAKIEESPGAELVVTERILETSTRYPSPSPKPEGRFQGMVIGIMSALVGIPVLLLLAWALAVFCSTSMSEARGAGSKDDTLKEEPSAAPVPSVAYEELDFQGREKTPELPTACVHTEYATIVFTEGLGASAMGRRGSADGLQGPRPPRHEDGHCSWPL


What was measured:
[1] = molecular target: T2, cyno PD-1 expressed on cells (cynomolgus); experiment: cell binding titration, CHO cells expressing cyno PD-1
T2 construct: whole, on cells; also called cyPD-1; cynomolgus PD-1

[2] = molecular target: T3, human PD-1 expressed on cells (human, UniProt Q15116 25-288); experiment: cell binding titration, CHO cells expressing human PD-1
T3 construct: also called huPD-1; CHO cells expressing human PD-1

[3] = molecular target: T1, murine PD-1 expressed on cells; experiment: cell binding titration, CHO cells expressing murine PD-1
[4] = molecular target: T4, purified recombinant His tagged human PD-1 (human, UniProt Q15116 25-170); experiment: SPR (Carterra MX96), antibody on chip, His-tagged human PD-1 injected
T4 construct: not shown: His tag

[5] = molecular target: T4, purified recombinant His tagged human …; experiment: SPR KD; fold improvement over parent mAb25
[6] = molecular target: T2, cyno PD-1 expressed on cells; experiment: cell binding EC50 on CHO-cyno PD-1; fold improvement over parent mAb25
[7] = molecular target: T3, human PD-1 expressed on cells; experiment: cell binding EC50 on CHO-human PD-1; fold improvement over parent mAb25
[8] = molecular target: T5, murine PD-L1 expressed on cells (murine, UniProt Q9EP73 19-290); experiment: cell binding titration, A20 cells expressing murine PD-L1
T5 construct: whole, on cells; also called muPDL1; mouse PD-L1

[9] = molecular target: T6, human PD-L1 expressed on cells (human, UniProt Q9NZQ7 19-290); experiment: cell binding titration, HEK cells expressing human PD-L1
T6 construct: also called huPDL1; human PD-L1 on HEK cells

[10] = molecular target: T7, purified recombinant His tagged human PD-L1 (human, UniProt Q9NZQ7 19-238); experiment: SPR KD; fold improvement, reference taken as parent mAb24
T7 construct: not shown: His tag

[11] = molecular target: T7, purified recombinant His tagged human …; experiment: SPR (Carterra MX96), antibody on chip, His-tagged human PD-L1 injected
[12] = molecular target: T6, human PD-L1 expressed on cells; experiment: cell binding EC50 on HEK-human PD-L1; fold improvement, reference taken as parent mAb24

T3 sequence (Q15116 25-288 limits assumed): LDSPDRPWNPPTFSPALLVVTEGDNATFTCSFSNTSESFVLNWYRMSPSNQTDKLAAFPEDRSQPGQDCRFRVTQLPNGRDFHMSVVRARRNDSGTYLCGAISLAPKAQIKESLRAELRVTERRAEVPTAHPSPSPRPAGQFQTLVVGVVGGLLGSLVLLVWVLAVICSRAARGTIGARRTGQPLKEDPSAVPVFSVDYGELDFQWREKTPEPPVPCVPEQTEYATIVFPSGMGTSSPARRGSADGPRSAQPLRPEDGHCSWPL
T7 sequence (Q9NZQ7 19-238 limits assumed): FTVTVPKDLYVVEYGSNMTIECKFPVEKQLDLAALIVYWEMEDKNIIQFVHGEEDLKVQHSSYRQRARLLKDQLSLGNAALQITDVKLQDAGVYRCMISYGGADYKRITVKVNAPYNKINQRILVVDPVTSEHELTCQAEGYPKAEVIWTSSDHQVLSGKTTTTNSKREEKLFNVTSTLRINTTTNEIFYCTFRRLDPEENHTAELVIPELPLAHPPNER
T5 sequence (Q9EP73 19-290): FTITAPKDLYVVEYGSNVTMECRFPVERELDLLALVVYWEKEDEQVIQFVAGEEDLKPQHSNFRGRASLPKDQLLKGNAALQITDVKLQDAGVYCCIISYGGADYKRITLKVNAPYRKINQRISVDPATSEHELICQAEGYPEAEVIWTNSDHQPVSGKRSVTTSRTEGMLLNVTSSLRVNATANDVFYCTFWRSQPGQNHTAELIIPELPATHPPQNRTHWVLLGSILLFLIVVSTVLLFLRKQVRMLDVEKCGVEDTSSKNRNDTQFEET
T4 sequence (Q15116 25-170 limits assumed): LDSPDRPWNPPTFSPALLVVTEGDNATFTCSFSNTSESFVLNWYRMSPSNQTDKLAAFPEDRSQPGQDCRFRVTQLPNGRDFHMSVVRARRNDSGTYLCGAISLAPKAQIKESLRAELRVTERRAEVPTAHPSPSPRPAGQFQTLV
T6 sequence (Q9NZQ7 19-290 limits assumed): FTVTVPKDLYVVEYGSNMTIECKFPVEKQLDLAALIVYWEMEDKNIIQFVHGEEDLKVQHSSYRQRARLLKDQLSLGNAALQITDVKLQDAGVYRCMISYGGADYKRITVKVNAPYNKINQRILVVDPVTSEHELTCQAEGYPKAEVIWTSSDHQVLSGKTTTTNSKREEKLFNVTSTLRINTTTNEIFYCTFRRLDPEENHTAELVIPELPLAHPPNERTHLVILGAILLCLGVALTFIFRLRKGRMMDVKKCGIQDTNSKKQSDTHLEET

Binder	EC50 [1]	EC50 [2]	binding result [3]	Kd [4]	Fold improvement over Parent [5]	Fold improvement over Parent [6]	Fold improvement over Parent [7]	EC50 [3]	binding result [8]	EC50 [9]	Fold Improvement [10]	Kd [11]	Fold Improvement [12]
mAb25 (antibody, V domains shown, also called parent PD-1 antibody mAb25) VH: EVQLLESGGGLVQPGGSLRLSCAASGFTFSDYAMSWVRQAPGKGLEWVSAISNSGTYTYYADSVKGRFTISRDNSKNTLYLQMNSLRAEDTAVYYCARGLDFIVGATGNDYWGQGTLVTVSS VL: not shown	8.59 nM	0.915 nM	no binding	240 nM	–	–	–	–	–	–	–	–	–
mAb35 (antibody, V domains shown) VH: EVQLLESGGGLVQPGGSLRLSCAASGFTFSGYAMSWVRQAPGKGLEWVSAISNSGTYTYYADSVKGRFTISRDNSKNTLYLQMNSLRAEDTAVYYCARGLDFIVGRTGNDYWGQGTLVTVSS VL: not shown	2.66 nM	1.64 nM	–	9 nM	27 fold	3.2 fold	0.6 fold	–	–	–	–	–	–
mAb29 (antibody, V domains shown) VH: EVQLLESGGGLVQPGGSLRLSCAASGFTFSNYALSWVRQAPGKGLEWVSAISNSGTYTYYADSVKGRFTISRDNSKNTLYLQMNSLRAEDTAVYYCARGLDFIVGYTGNDYWGQGTLVTVSS VL: not shown	1.73 nM	1.27 nM	–	8.6 nM	28 fold	5 fold	0.7 fold	2.14 nM	–	–	–	–	–
mAb33 (antibody, V domains shown) VH: EVQLLESGGGLVQPGGSLRLSCAASGFTFNSYAMSWVRQAPGKGLEWVSAISNSGTYTYYADSVKGRFTISRDNSKNTLYLQMNSLRAEDTAVYYCARGLDFIVGYTGNDYWGQGTLVTVSS VL: not shown	1.33 nM	1.04 nM	–	7 nM	34 fold	6.5 fold	0.9 fold	10.4 nM	–	–	–	–	–
mAb26 (antibody, V domains shown) VH: EVQLLESGGGLVQPGGSLRLSCAASGFTFSDYAMSWVRQAPGKGLEWVSAISNSGTYTYYADSVKGRFTISRDNSKNTLYLQMNSLRAEDTAVYYCARGLDFIVGYTGNDYWGQGTLVTVSS VL: not shown	1.54 nM	3.74 nM	–	10 nM	24 fold	5.6 fold	0.2 fold	17.9 nM	–	–	–	–	–
mAb27 (antibody, V domains shown) VH: EVQLLESGGGLVQPGGSLRLSCAASGFTFSSYAMSWVRQAPGKGLEWVSAISNSGTYTYYADSVKGRFTISRDNSKNTLYLQMNSLRAEDTAVYYCARGLDFIVGYTGNDYWGQGTLVTVSS VL: not shown	1.53 nM	1.75 nM	–	2.3 nM	104 fold	5.6 fold	0.5 fold	6.14 nM	–	–	–	–	–
mAb15 (antibody, V domains shown) VH: QVQLVQSGAEVKKPGSSVKVSCKASGGTFSSYAISWVRQAPGQGLEWMGRINPILGTANYAQKFQGRVTITADESTSTAYMELSSLRSEDTAVYYCARLKGELKDAFSIWGQGTLVTVSS VL: not shown	–	–	–	–	–	–	–	–	no binding	–	–	–	–
mAb14 (antibody, V domains shown) VH: QVQLVQSGAEVKKPGSSVKVSCKASGGTFSSYAISWVRQAPGQGLEWMGRIIPLFGTAHYAQKFQGRVTITADESTSTAYMELSSLRSEDTAVYYCARLKGELKDAFDIWGQGTLVTVSS VL: not shown	–	–	–	–	–	–	–	–	no binding	1.54 nM	–	–	0.1 fold
mAb23 (antibody, V domains shown) VH: QVQLVQSGAEVKKPGSSVKVSCKASGGTFSSYAINWVRQAPGQGLEWMGGIIPVFGTATYAQKFQGRVTITADESTSTAYMELSSLRSEDTAVYYCARLKGELKDAFDIWGQGTMVTVSS VL: not shown	–	–	–	–	–	–	–	–	no binding	0.83 nM	–	369 nM	0.2 fold
mAb11 (antibody, V domains shown) VH: QVQLVQSGAEVKKPGSSVKVSCKASGGTFSSYAINWVRQAPGQGLEWMGGVIPFLGTANYAQKFQGRVTITADESTSTAYMELSSLRSEDTAVYYCARLKGILKDALDIWGQGTLVTVSS VL: not shown	–	–	–	–	–	–	–	–	no binding	1.37 nM	–	156 nM	0.1 fold
mAb12 (antibody, V domains shown) VH: QVQLVQSGAEVKKPGSSVKVSCKASGGTFSSYAISWVRQAPGQDLEWMGGIIPIVGIANYAQKFQGRVTITADESTSTAYMELSSLRSEDTAVYYCARLKGELKDAFDIWGQGTLVTVSS VL: not shown	–	–	–	–	–	–	–	–	no binding	1.23 nM	–	358 nM	0.1 fold

More lines, now with the values ahead:

EC50 [1]	EC50 [2]	binding result [3]	Kd [4]	Fold improvement over Parent [5]	Fold improvement over Parent [6]	Fold improvement over Parent [7]	EC50 [3]	binding result [8]	EC50 [9]	Fold Improvement [10]	Kd [11]	Fold Improvement [12]	Binder
2.05 nM	2.77 nM	–	3.1 nM	77 fold	4.2 fold	0.3 fold	4.05 nM	–	–	–	–	–	mAb30 (antibody, V domains shown) VH: EVQLLESGGGLVQPGGSLRLSCAASGFTFSAYAMNWVRQAPGKGLEWVSAISNSGTYTYYADSVKGRFTISRDNSKNTLYLQMNSLRAEDTAVYYCARGLDFIVGYTGNDYWGQGTLVTVSS VL: not shown
1.29 nM	1.51 nM	–	2.1 nM	114 fold	6.7 fold	0.6 fold	2.8 nM	–	–	–	–	–	mAb32 (antibody, V domains shown) VH: EVQLLESGGGLVQPGGSLRLSCAASGFTFGRYAMSWVRQAPGKGLEWVSAISNSGTYTYYADSVKGRFTISRDNSKNTLYLQMNSLRAEDTAVYYCARGLDFIVGYTGNDYWGQGTLVTVSS VL: not shown
1.9 nM	1.71 nM	–	5.5 nM	44 fold	4.5 fold	0.5 fold	1.87 nM	–	–	–	–	–	mAb31 (antibody, V domains shown) VH: EVQLLESGGGLVQPGGSLRLSCAASGFTFRSYAMSWVRQAPGKGLEWVSAISNSGTYTYYADSVKGRFTISRDNSKNTLYLQMNSLRAEDTAVYYCARGLDFIVGYTGNDYWGQGTLVTVSS VL: not shown
1.19 nM	1.01 nM	–	7.7 nM	31 fold	7.2 fold	0.9 fold	–	–	–	–	–	–	mAb36 (antibody, V domains shown) VH: EVQLLESGGGLVQPGGSLRLSCAASGFTFSSYAMNWVRQAPGKGLEWVSAISNSGTYTYYADSVKGRFTISRDNSKNTLYLQMNSLRAEDTAVYYCARGLDFIVGRTGNDYWGQGTLVTVSS VL: not shown
–	–	–	–	–	–	–	–	no binding	–	–	–	–	mAb7 (antibody, V domains shown) VH: QVQLVQSGAEVKKPGSSVKVSCKASGGTFSSYAINWVRQAPGQGLEWMGGIIPNFGTATYAQKFQGRVTITADESTSTAYMELSSLRSEDTAVYYCARLKGELKGAGDIWGQGTLVTVSS VL: not shown
–	–	–	–	–	–	–	–	no binding	0.14 nM	0.1 fold	91.5 nM	1 fold	mAb21 (antibody, V domains shown) VH: QVQLVQSGAEVKKPGSSVKVSCKASGGPFRSHAVSWVRQAPGQGLEWMGGIIPVFGTATYAQKFQGRVTITADESTSTAYMELSSLRSEDTAVYYCARLKSELKDAFDIWGQGTLVTVSS VL: not shown
–	–	–	–	–	–	–	–	no binding	–	–	–	–	mAb16 (antibody, V domains shown) VH: QVQLVQSGAEVKKPGSSVKVSCKASGGTFSSYAINWVRQAPGQGLEWMGRIIPIFGTADYAQKFQGRVTITADESTSTAYMELSSLRSEDTAVYYCARLKGELKDAFDIWGQGTLVTVSS VL: not shown
–	–	–	–	–	–	–	–	no binding	1.43 nM	0.1 fold	52.3 nM	1 fold	mAb13 (antibody, V domains shown) VH: QVQLVQSGAEVKKPGSSVKVSCKASGGTFSSYAISWVRQAPGQGLEWMGGIIPVFGTATYAQKFQGRVTITADESTSTAYMELSSLRSEDTAVYYCARLKGEFKDAFDIWGQGTLVTVSS VL: not shown
